# Results: the supplement of paper PMC9112550, “Optimization of the antimicrobial peptide Bac7 by deep mutational scanning” (BMC Biology, 2022)
# Tested on: Escherichia coli TOP10
# Assay: shrunken log2 fold change of peptide-encoding DNA abundance (4.5 h post-induction vs induction); higher = less antimicrobial activity (less host growth inhibition)
# Conditions: time post-induction: 4.5 h; library: site-saturation at positions 5, 18, 19, 20
# 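Also: peptides expressed intracellularly from a pBAD plasmid library in pooled LB shake-flask culture, induced with 0.3% L-arabinose, DNA abundance read by NGS, three biological replicates, DESeq2 with apeglm shrinkage.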
row,Sequence,shrunken log2 fold change
1,RRIRGRPPRLPRPRPRPSAIPRP,1.3
2,RRIRFRPPRLPRPRPRPFKSPRP,0.0901
3,RRIRTRPPRLPRPRPRPVPLPRP,-0.145
4,RRIRQRPPRLPRPRPRPPFQPRP,0.0422
5,RRIRVRPPRLPRPRPRPKTKPRP,0.0179
6,RRIRGRPPRLPRPRPRPWVFPRP,0.758
7,RRIRERPPRLPRPRPRPYTAPRP,-0.662
8,RRIRVRPPRLPRPRPRPLWGPRP,0.0188
9,RRIRQRPPRLPRPRPRPNCWPRP,0.0822
10,RRIRMRPPRLPRPRPRPHICPRP,-0.0377
11,RRIRFRPPRLPRPRPRPENKPRP,-0.422
12,RRIRCRPPRLPRPRPRPFNPPRP,-0.558
13,RRIRRRPPRLPRPRPRPFDGPRP,0.079
14,RRIRRRPPRLPRPRPRPRSIPRP,-0.0781
15,RRIRERPPRLPRPRPRPVKTPRP,0.0285
16,RRIRVRPPRLPRPRPRPIAFPRP,-0.207
17,RRIRHRPPRLPRPRPRPDTFPRP,-1.19
18,RRIRARPPRLPRPRPRPVVCPRP,0.224
19,RRIRIRPPRLPRPRPRPDIMPRP,-0.121
20,RRIRARPPRLPRPRPRPNWRPRP,0.883
21,RRIRCRPPRLPRPRPRPPCKPRP,-0.189
22,RRIRQRPPRLPRPRPRPVWGPRP,0.225
23,RRIRPRPPRLPRPRPRPYKVPRP,-0.338
24,RRIRKRPPRLPRPRPRPGSIPRP,0.00442
25,RRIRGRPPRLPRPRPRPDCMPRP,0.909

row,Sequence,shrunken log2 fold change
1,RRIRRRPPRLPRPRPRPMFKPRP,0.168
2,RRIRLRPPRLPRPRPRPKGQPRP,-0.11
3,RRIRHRPPRLPRPRPRPKVDPRP,-0.0132
4,RRIRMRPPRLPRPRPRPPRVPRP,1.23
5,RRIRLRPPRLPRPRPRPEHRPRP,0.283
6,RRIRSRPPRLPRPRPRPSQNPRP,-0.321
7,RRIRKRPPRLPRPRPRPCSCPRP,0.018
8,RRIRNRPPRLPRPRPRPTVNPRP,-0.382
9,RRIRNRPPRLPRPRPRPKEIPRP,0.0136
10,RRIRFRPPRLPRPRPRPDTMPRP,-0.0817
11,RRIRMRPPRLPRPRPRPTIVPRP,-0.0671
12,RRIRPRPPRLPRPRPRPTYLPRP,-0.113
13,RRIRMRPPRLPRPRPRPHYDPRP,-0.135
14,RRIRHRPPRLPRPRPRPNNIPRP,-1.2
15,RRIRLRPPRLPRPRPRPENCPRP,-0.0062
16,RRIRARPPRLPRPRPRPWCRPRP,0.0486
17,RRIRDRPPRLPRPRPRPVVQPRP,-0.0248
18,RRIRWRPPRLPRPRPRPWYGPRP,-0.34
19,RRIRGRPPRLPRPRPRPPATPRP,1.79
20,RRIRCRPPRLPRPRPRPMNCPRP,-0.0537
21,RRIRVRPPRLPRPRPRPCHQPRP,-0.483
22,RRIRGRPPRLPRPRPRPFDSPRP,0.0127
23,RRIRWRPPRLPRPRPRPGLQPRP,0.0651
24,RRIRERPPRLPRPRPRPVISPRP,-0.145
25,RRIRPRPPRLPRPRPRPVQWPRP,0.151

row,Sequence,shrunken log2 fold change
1,RRIRFRPPRLPRPRPRPASDPRP,-0.32
2,RRIRGRPPRLPRPRPRPYYKPRP,-0.607
3,RRIRCRPPRLPRPRPRPEGIPRP,-0.106
4,RRIRFRPPRLPRPRPRPSMFPRP,-0.505
5,RRIRGRPPRLPRPRPRPLQGPRP,0.226
6,RRIRMRPPRLPRPRPRPHELPRP,0.627
7,RRIRHRPPRLPRPRPRPKFEPRP,-0.125
8,RRIRARPPRLPRPRPRPAEEPRP,0.697
9,RRIRIRPPRLPRPRPRPTVWPRP,0.163
10,RRIRNRPPRLPRPRPRPNALPRP,-0.134
11,RRIRPRPPRLPRPRPRPQEEPRP,0.0679
12,RRIRSRPPRLPRPRPRPMLAPRP,0.244
13,RRIRRRPPRLPRPRPRPQHRPRP,0.266
14,RRIRPRPPRLPRPRPRPSRWPRP,0.611
15,RRIRRRPPRLPRPRPRPDNWPRP,0.000556
16,RRIRHRPPRLPRPRPRPPNNPRP,-0.58
17,RRIRNRPPRLPRPRPRPCAYPRP,-0.139
18,RRIRDRPPRLPRPRPRPFAHPRP,0.228
19,RRIRARPPRLPRPRPRPMSVPRP,0.121
20,RRIRDRPPRLPRPRPRPSKIPRP,-0.381
21,RRIRFRPPRLPRPRPRPSAMPRP,-0.0766
22,RRIRMRPPRLPRPRPRPYKHPRP,-0.872
23,RRIRPRPPRLPRPRPRPCIQPRP,-0.209
24,RRIRGRPPRLPRPRPRPLYLPRP,-0.221
25,RRIRSRPPRLPRPRPRPEINPRP,0.0112

row,Sequence,shrunken log2 fold change
1,RRIRERPPRLPRPRPRPSRDPRP,-0.12
2,RRIRIRPPRLPRPRPRPWNQPRP,0.00812
3,RRIRDRPPRLPRPRPRPEVAPRP,0.563
4,RRIRNRPPRLPRPRPRPSPLPRP,-0.334
5,RRIRCRPPRLPRPRPRPPIAPRP,1.41
6,RRIRCRPPRLPRPRPRPNTEPRP,-0.161
7,RRIRKRPPRLPRPRPRPEEFPRP,0.227
8,RRIRERPPRLPRPRPRPEKEPRP,0.0662
9,RRIRSRPPRLPRPRPRPMLIPRP,-0.131
10,RRIRRRPPRLPRPRPRPEPAPRP,0.812
11,RRIRCRPPRLPRPRPRPTIYPRP,-0.644
12,RRIRDRPPRLPRPRPRPFRPPRP,0.0778
13,RRIRQRPPRLPRPRPRPIDTPRP,-0.216
14,RRIRTRPPRLPRPRPRPIQIPRP,0.0193
15,RRIRLRPPRLPRPRPRPILVPRP,-0.157
16,RRIRMRPPRLPRPRPRPNSQPRP,-0.075
17,RRIRERPPRLPRPRPRPPMEPRP,-0.0809
18,RRIRGRPPRLPRPRPRPCHPPRP,-0.119
19,RRIRFRPPRLPRPRPRPNTWPRP,-0.277
20,RRIRLRPPRLPRPRPRPFQLPRP,-0.402
21,RRIRMRPPRLPRPRPRPGNCPRP,0.0879
22,RRIRKRPPRLPRPRPRPCHEPRP,0.00408
23,RRIRYRPPRLPRPRPRPFLLPRP,-1.19
24,RRIRTRPPRLPRPRPRPGAFPRP,2.41
25,RRIRPRPPRLPRPRPRPSAFPRP,0.191

row,Sequence,shrunken log2 fold change
1,RRIRNRPPRLPRPRPRPMRWPRP,0.892
2,RRIRFRPPRLPRPRPRPTARPRP,0.336
3,RRIRARPPRLPRPRPRPLNWPRP,0.245
4,RRIRGRPPRLPRPRPRPIREPRP,-0.0123
5,RRIRSRPPRLPRPRPRPKWWPRP,0.0275
6,RRIRNRPPRLPRPRPRPHSCPRP,-0.00198
7,RRIRMRPPRLPRPRPRPLEFPRP,-0.102
8,RRIRRRPPRLPRPRPRPELTPRP,-0.0257
9,RRIRIRPPRLPRPRPRPRAAPRP,0.458
10,RRIRLRPPRLPRPRPRPRTMPRP,-0.0102
11,RRIRTRPPRLPRPRPRPEYFPRP,-0.186
12,RRIRQRPPRLPRPRPRPSDWPRP,-0.131
13,RRIRKRPPRLPRPRPRPFCCPRP,0.27
14,RRIRIRPPRLPRPRPRPAFTPRP,0.106
15,RRIRSRPPRLPRPRPRPRERPRP,0.431
16,RRIRPRPPRLPRPRPRPICMPRP,-0.343
17,RRIRQRPPRLPRPRPRPTGLPRP,0.0999
18,RRIRVRPPRLPRPRPRPHYGPRP,-0.0301
19,RRIRPRPPRLPRPRPRPSYAPRP,-0.106
20,RRIRWRPPRLPRPRPRPLDEPRP,0.53
21,RRIRTRPPRLPRPRPRPHKWPRP,-0.029
22,RRIRHRPPRLPRPRPRPWIAPRP,0.143
23,RRIRARPPRLPRPRPRPRHMPRP,-0.00102
24,RRIRMRPPRLPRPRPRPGSVPRP,0.696
25,RRIRPRPPRLPRPRPRPKKHPRP,-0.0812

row,Sequence,shrunken log2 fold change
1,RRIRVRPPRLPRPRPRPPQGPRP,0.203
2,RRIRQRPPRLPRPRPRPTYPPRP,0.0397
3,RRIRTRPPRLPRPRPRPCERPRP,-0.018
4,RRIRDRPPRLPRPRPRPKNCPRP,-0.15
5,RRIRCRPPRLPRPRPRPIIRPRP,-0.18
6,RRIRRRPPRLPRPRPRPKQKPRP,0.264
7,RRIRRRPPRLPRPRPRPRTEPRP,0.432
8,RRIRIRPPRLPRPRPRPIGHPRP,-0.0672
9,RRIRVRPPRLPRPRPRPKCSPRP,-0.065
10,RRIRQRPPRLPRPRPRPLNTPRP,-0.937
11,RRIRKRPPRLPRPRPRPFTCPRP,0.182
12,RRIRFRPPRLPRPRPRPSGVPRP,0.0832
13,RRIRTRPPRLPRPRPRPARTPRP,0.381
14,RRIRRRPPRLPRPRPRPCFCPRP,0.104
15,RRIRQRPPRLPRPRPRPPRCPRP,0.689
16,RRIRVRPPRLPRPRPRPIQFPRP,-0.0307
17,RRIRERPPRLPRPRPRPNDAPRP,-0.19
18,RRIRRRPPRLPRPRPRPGDGPRP,0.467
19,RRIRVRPPRLPRPRPRPLLDPRP,0.157
20,RRIRRRPPRLPRPRPRPMKSPRP,0.304
21,RRIRDRPPRLPRPRPRPEKPPRP,-0.173
22,RRIRWRPPRLPRPRPRPHTLPRP,-0.325
23,RRIRCRPPRLPRPRPRPMCYPRP,-0.244
24,RRIRARPPRLPRPRPRPCMEPRP,0.0522
25,RRIRYRPPRLPRPRPRPETCPRP,-0.00674
